assay: soluble on expression in E. coli; label from the status in PepcDB or PDB records

| Sequence | soluble on expression in E. coli |
| --- | --- |
| MVGNPALAELLRAPRLIPWRNWSGAQSCLPLAREAPKDLDELVRIIRQASGRIRPVGSGHSFSALVPTDGTLLSLAYFSGLLSHDSVTLQAEFGGGTPMSQMGAPLKEIGQALVNMADIDYQTLAGAIATSTHGTGVGFGSYSAQVRGLQLVTASGEVLECDAKRNVEVFDAARVSLGALGVVTRVRLQNRAAYRLRERQWIARTEELLEDVEKNTRENQHWEMLVVTHSDYALSIALNETDEPKTPPLDPAKEGGNEFVGLIEGLDKYLSDFPETRRTLLNSLRHFARFDERVDDSYAVYANVRNVRFNEMEYSVPAEHGPACLREILALIRDKDLRTWFPIEYRYVKADDIPLSMFEGRDSCSISVHQHYSMDHHNFFAAVEPIFWKYAGRPHWGKLHGLNAHQLQGLYPRWKAFAEVRQALDPRGRFLNAHLSSILGVTKLAAALEHHHHHH | not soluble |
| MVGPATGRIVVTSRIVVLGGGFGGMYAARALKRRLGRAAEIELVNAENYFVFQPLLPEVGAGSITPAHAVSPLRFLLRDVFVRKATVDSVDFDRRLVTVFQGVQRRPTEIGYDHLVIALGQAADLSKMPGLEEHALTMRTLEDARRLRAHVIGQLEHAQITRLPEVKRGALTFCVVGGGFSGIETAGEMKDLIDRSLKFYPDIDPSEVRMIVVEFADRILGEMSQGLADYATRTLRERGIEVKLGTGVASATGTQLVTTTGEVIDTRTIVATIGNAPSPVVRRMGLPSERGRISVDRTLAVKGRSDVWALGDCALIALKDAPQGPRDYAPPTAQFAVREAEQLAENIASTLTGGTPQPFDYRSKGALASLGARKGVAQVFGLELKGFPAWLLWRFYYLAFLPGLTTRIFVLLNWFMDGISPRSVVQLHTRSVPPTRYVRYRAGDVIYEAGNRSDGFYTVVTGAVEMTRTDPETGLPQVRTIGPGGHFGERLILGATRRQTSVRAAEDTKVLVMDREEFLKLADSFQAFRDYFGPYMARHGMTWPPLGETDGQAAPKPVPTEKDLEHHHHHH | not soluble |
| MVGWRRMGLPADSLSDEALLALVARGDEEAFRALFRRYAGSFLALARRMGLDGAAAEDVVQEAMIRVWQKAKEFDPRRGSARAFLLTLGHHAAVDEVRRRAARPLPLEPDPEREEEAFDLPGPGLDEEGHLDRTRLGRALKALSPEERRVIEVLYYQGYTHREAASLLGLPLGTLKTWARRALSKLKEVLREP | soluble |
| MVHPAFQVFTDALRQRFGEALDAVVLYGSCLHTSDLTEGIADFYVLVSDYRLAYSGRLLAGLNAWLPPNVFYLEVPAAAGVMRAKYAVISTADFERGARQWFHPYIWARFAQPARLLYARDDQTGKRVHTAQASAVLKFISTTLPVLESGPSDLEMIWASGLMLTYAAELRAEREARARHLVRIDPEIYSRLTAAAMPALIPLLSLQADGRYHIGPITPLKRLSARIHWRLRRWQGRVLSVLRLSKATMTFRDCLDYAAWKIERHTGIKVEITPMLRRHPILWGYKVMWQLLRRGVLRLEHHHHHH | not soluble |
| MVIVLVVDSFKDTSNGTSMTAFRFFEALKKRGHVMRVVAPHVDNLGSEEEGYYNLKERYIPLVTEISHKQHILFAKPDEKILRKAFKGADMIHTYLPFLLEKTAVKIAREMQVPYIGSFHLQPEHISYNMKLGWFSWFNMMLFSWFKSSHYRYIHHIHCPSKFIVEELEKYNYGGKKYAISNGFDPMFRFEHPQKSLFDTTPFKIAMVGRYSNEKNQSVLIKAVALSKYKQDIVLLLKGKGPDEKKIKLLAQKLGVKAEFGFVNSNELLEILKTCTLYVHAANVESEAIACLEAISVGIVPVIANSPLSATRQFALDERSLFEPNNAKDLSAKIDWWLENKLERERMQNEYAKSALNYTLENSVIQIEKVYEEAIRDFKNNPHLFKTLSLEHHHHHH | soluble |
| MVIWFFYGFRKIMHLSLKRIIVKCKMSQLDRTSLIQYFNSNGVLISPEALDKLIKYSSSSLIEDLIKNSDGYIDEKYVERYVSRPKVRNDYEVYLPDVRFNASIEDFRKMFVSKYEKLSKIITSSSSMRGSISIKTAKRSQGEVKVVGMVSEVSMTKNGHKRIVIEDLDDSITAIVMKDRGPVNEIILEDEVIGIIGSVSQSSKDPVIFVNEIIRPDIPYRVIDEEKHEPVYVASISDIHVGSKTFRKNEFEAMVRWISGSDPDASRVKYLILSGDVVDGIGVYPDQENDLEILNPLEQYANLAEYLVDVPEDVKVFVMPGNHDTVRLSEPQPVFPGKIRDLFEPNVAFLPNPYNLKLEGKNVLVYHGMSLNDMIELIPGANYDSIGKAIEAILVRRHLSPKYGGNTPMIPSAVDYHVIEEVPDIFITGHIHSHYIGNYKGVRYVNSSTWQSQTEYQKMMNFNPKPSKLTLFDLYSRSVIVKDFDTTLLEHHHHHH | not soluble |
| MVKESIPKEGENIKIQSYKHDGNIHRVWSETTILKGTEHVIIGGNDHTLVTESDGRTWITREPAIVYFHSEYWFNVICMFREDGIYYYCNLSSPFACDEEALKYIDYDLDIKVYPNGKYHLLDEDEYEQHMNQMNYPHDIDIILRRNVDILQQWIEQKKGPFAPDFIKVWKERYKKIRDY | not soluble |
| MVKETHRFETFTEEPIRLIGEEGEWLGDFPLDLEGEKLRRLYRDMLAARMLDERYTILIRTGKTSFIAPAAGHEAAQVAIAHAIRPGFDWVFPYYRDHGLALALGIPLKELLGQMLATKADPNKGRQMPEHPGSKALNFFTVASPIASHVPPAAGAAISMKLLRTGQVAVCTFGDGATSEGDWYAGINFAAVQGAPAVFIAENNFYAISVDYRHQTHSPTIADKAHAFGIPGYLVDGMDVLASYYVVKEAVERARRGEGPSLVELRVYRYGPHSSADDDSRYRPKEEVAFWRKKDPIPRFRRFLEARGLWNEEWEEDVREEIRAELERGLKEAEEAGPVPPEWMFEDVFAEKPWHLLRQEALLKEEL | soluble |
| MVKIRLARFGSKHNPHYRIVVTDARRKRDGKYIEKIGYYDPRKTTPDWLKVDVERARYWLSVGAQPTDTARRLLRQAGVFRQEAREGA | soluble |
| MVKIYLIEHVIGAVAYDENGNIVDYITNPRDLGKITEELLNNEKGIPFSATVELLKKVNPQEVVVENEAEVPKLQALGYRVSYEPYSKVSRIFRESLPKVAIDIKFASNEEDYYNFLHELSLEYTRRKLRSAAQKRDLLAIQAVRAMDDIDKTINLFSERLREWYSIHFPELDKLIEDHEEYATIVSRFGDRGFLTIDSLKELGFNEQRINRILDAAKKSIGADISEDDLSAMRMIANTILDLYNIRRNLNNYLEGVMKEVAPNVTALVGPALGARLLSIAGSLDELAKMPASTIQVLGAEKALFRALRSGGRPPKHGIIFQYPAIHTSPRWQRGKIARALAAKLAIAARVDAFSGRFIGDQLNEQLKKRIDEIKEKFAQHHHHHHHH | soluble |
| MVKKMCQDYLSSSGLCSQETLEINNDKVAESLGITEFLRKKEIHPDNLGPKHLSRDMDGEQLEGASSEKREREAAEEGLASVKRPRREALSNDTTESLAANSRGREKPRPLHALAAGTIVSQEEDIVTVTDAEGRACGWAR | soluble |
| MVKMLTMDKILSKKIKVNWLGGVFWLLPNLLDLFSASKRKASVRPYQSLLELVQENFLNRYDLVHFSFNGDHDFFHFNDLQAIRSFNFTIEEEQLGAMQPDEVLLFEPVDRVTVELDQKGLSLIHSGKAFCASANYFKHWLKRVPQQDKVTLVWRKSGFELKQ | soluble |
| MVKPDWWIREMARKGMIEPFEERLVREGVISYGLSSFGYDLRAAPEWKIFTNVFSSLVDPKNFDPKSFVEYEGEEVVIPPNSFALTRSLEYIRMPDNVIAIALGKSTYARCGIVVNVTPLEPGWEGHVTLEISNTTPLPAKVYAGEGIVQLLFLEGPRPEVTYRDRKGKYQGQKGITLPRV | soluble |
| MVKQLNSVEAFREFIHQYPLAVVHVMRDQCSVCHAVLPQIEDLMQSYPNVPLAVINQSQVEAIAGELNIFTVPVDLIFMNGKEMHRQGRFIDMQRFEHHLKQMNDSVNNDVDEHEYRK | soluble |
| MVKRANTFAMRPLTADDEQVLRDLLDASAALWNEINYQRLMRYNDKDGFEDEDVWDADTGALEGKYKAVLGASTAQTVRRANTEAWRSFFRLKKQFHDESNTSVTEHPEPPGFRGNKDDGRVLKGVVRKDAYSVEWGDRSRLEMVVGEQLRDRHNSPKSRLRLEIVGDPNWSDYEDQGRLELWYDETDCTFRASQPVTVSDDARATPLANEKAALDIGANNLVACTTTTGQQYLYEGRELFQRFRETTREIARLQSKLPEGRYSSKRIRRLYRKRTRRRDHAQETLCRDLLEQLYGEGVDTVYIGGLTDVLETHWSAETNAKTHNFWAFKQFTERLAWTADEYGISVEVRSEAWTSQECPQCGSTDRTTRQQDTLTCPCGFEGHADVTASETFLERHTEKAVRPMARPVRFEWDDHEWSESPRSPARESPKEQRTDPSTVPRDGNVVSGDSLEHHHHHH | not soluble |
| MVKSFRMKALIAGAAVAAAVSAGAVSDVPAAKVLQPTAAYAAETVFSQNNGASGFLPGRYDVQAMAPAMFNWSRESRFAGNTDGTLKWQNDIRTTPQNGAGAVIDGDGTVYLHSRDGEMKAFNPDGSVKWVTGNLGKTYTQSPVLGTNGVIYLASYDKKIYFIDKETGEILTTVPLSGGPSSETVIGSDGTLYFSTLDNYVHAIKPTSKSTWTERWKLKTNGVVSSVPVLAKNGTVYVGTYNYVFYAINSGTGQVKWSRTTSNAFKGYPVIDKDGNIYAGNQDGQLYAYTSTGSLKWTFPLNGFSSSSPAIDHNGNIYIGSGSGELFSISKNGDMNWSFYTDGPVRTAPLIDAKGTVYFGSDDMKVYAADANGNELWSYQTDSNVVSSPQLAEDGTLYIGSYTKLMAFGKLEHHHHHH | soluble |
| MVLLVSQLYGCGDPLPEQRKLSHFDRIKAAGELRVLVRDKRFASSRPASGTAGFERDLLHGFASHLGVRLRFIPANARPVTERLLRGEADFAAMPSRSVAGEVLPTGGPPPFAGVTPVGGWVGALAGGLKGMARNSAQKFNPRMAFAEYSPRRVHTLKWAFPENAGVRGPRALAWMFAEPEGDHLAMMAEHFLRDMCERKGLDPLLDRHFGHNEGADPALDRNLRESYGRQLGKYRRTFVEAAARHGLDWRLLAAVAFQESRWDGHAVSAEGVRGMMMLTGATARELGVDRNNPGQSIHGGARYLKAVWSRLPEEIAEPDRTWFALSAYNLGPGRVETARRLAKKLGRDPNKWAEVKKTLPLVGAGRSGGRFRHPSARGKLTVQYVNRVRHYYDLLVRLEHHHHHH | soluble |
| MVLPERDSPCGWTRMIPLPSDGSVSIAGRSPRLNVEAVEAVVTLPTFKRPEQVLDTLASLRAQRTGRRFAVIVMENEAEVREGAKAVLPLFERGEMPGMVIVAQERGNCSAYNAGWQTAMLHFPNFRHLLVIDDDEIADPHWLERMCMAAETLGADIVGGPQVPVFADAAHARWAEHPVFAPPYRETGRVPALYSSGNLLVGRNVLVAMEPPFLDLKFNFMGGGDSDFLSRAVQNGFVLGWCAEAKVRETVPARRVEPDWIRARSLRNGVISTLVEKKKRAGTPLAGAEVLAKSLALLAAAPFRGLIRLARTGSPAIAIYPVHVALGRVLAEFGYANEQYRQPEKN | not soluble |
| MVNTLAFEYSYKALIVYCRINNNNFSLVKLKSNLNFSVPKIFNDFVIKNNIDLNQIELIINSCGPGSFTGLRISLSFVKGLALGLSIPFVNISTLDVFANLVENNPSAVVLTFTAGKYFLGNYKNCKLIGKILCFSKKDLFEYLNQIDPNSVLIGNNLEDVCKECNYKFKIIENLSSFGKILTELGVAKYLKNRKGDDILSGPLYIRQSDAEVNFHSLEHHHHHH | not soluble |

Source: the DeepSol protein solubility set
